Measurements as given in paper PMC9482650, “Quantitative fragmentomics allow affinity mapping of interactomes” (Nature Communications, 2022).

T1: APBA1_2, Q02410
T1 sequence (Q02410 742-832, limits assumed, looked up): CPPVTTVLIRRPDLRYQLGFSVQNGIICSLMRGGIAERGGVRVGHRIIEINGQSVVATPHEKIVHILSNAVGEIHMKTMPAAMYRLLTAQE

T2: PARD3B_1, Q8TEW8
T2 sequence (Q8TEW8 196-299, limits assumed, looked up): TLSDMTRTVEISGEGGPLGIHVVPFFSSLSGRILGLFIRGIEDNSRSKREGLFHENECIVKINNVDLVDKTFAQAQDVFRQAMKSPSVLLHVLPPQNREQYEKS

T3: SNTG1, Q9NSN8
T3 sequence (Q9NSN8 52-150, limits assumed, looked up): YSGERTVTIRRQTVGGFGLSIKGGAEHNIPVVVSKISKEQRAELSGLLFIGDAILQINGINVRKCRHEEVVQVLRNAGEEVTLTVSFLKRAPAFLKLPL

T4: CARD11, Q9BXL7
T4 sequence (Q9BXL7 662-765, limits assumed, looked up): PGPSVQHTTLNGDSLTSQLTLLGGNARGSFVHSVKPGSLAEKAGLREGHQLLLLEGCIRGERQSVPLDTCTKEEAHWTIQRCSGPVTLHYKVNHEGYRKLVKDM

T5: LRRC7, Q96NW7
T5 sequence (Q96NW7 1440-1537, limits assumed, looked up): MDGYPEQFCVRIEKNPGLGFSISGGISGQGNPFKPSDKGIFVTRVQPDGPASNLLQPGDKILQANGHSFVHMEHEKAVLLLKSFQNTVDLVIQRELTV

T6: NHERF3_3, Q5T2W1
T6 sequence (Q5T2W1 238-333, limits assumed, looked up): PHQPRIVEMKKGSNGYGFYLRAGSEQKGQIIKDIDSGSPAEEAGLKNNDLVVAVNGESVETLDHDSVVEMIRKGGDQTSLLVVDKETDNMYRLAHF

T7: SNTG2, Q9NY99
T7 sequence (Q9NY99 68-166, limits assumed, looked up): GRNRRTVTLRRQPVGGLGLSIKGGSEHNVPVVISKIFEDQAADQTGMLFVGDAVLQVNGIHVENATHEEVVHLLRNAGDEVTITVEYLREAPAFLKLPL

T8: MPP6, Q9NZW5
T8 sequence (Q9NZW5 125-219, limits assumed, looked up): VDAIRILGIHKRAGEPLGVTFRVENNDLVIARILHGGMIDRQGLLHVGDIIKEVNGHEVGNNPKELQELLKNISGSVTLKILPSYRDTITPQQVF

T9: NHERF3_1, Q5T2W1
T9 sequence (Q5T2W1 4-100, limits assumed, looked up): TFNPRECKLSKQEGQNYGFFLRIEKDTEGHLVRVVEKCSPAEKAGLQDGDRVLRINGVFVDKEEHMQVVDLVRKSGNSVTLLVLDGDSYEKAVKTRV

B1: SORCS3, Q9UPU3 (peptide)
chain: TKEIPNCTSV
B2: PRLHR, P49683 (peptide)
chain: GQNMTVSVVI

What follows are binders tested against DLG2_2, Q15700 (assay: holdup assay). Conditions: plain residues with an end cap or a label only (N-terminal biotin on a linker: ado-ado).
DLG2_2, Q15700, sequence (Q15700 189-283): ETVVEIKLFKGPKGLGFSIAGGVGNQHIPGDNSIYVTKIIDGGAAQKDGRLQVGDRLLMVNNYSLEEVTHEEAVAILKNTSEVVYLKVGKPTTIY
Parameters: key: below the threshold = too weak to quantify, mostly under pKd 3.1 to 4

Row | pKd | Binder
1 | 4.1 | B1
2 | below the threshold | B2

Each binder was assayed against SCRIB_3, Q14160 (assay: holdup assay). Conditions: plain residues with an end cap or a label only (N-terminal biotin on a linker: ado-ado).
SCRIB_3, Q14160, sequence (Q14160 999-1103): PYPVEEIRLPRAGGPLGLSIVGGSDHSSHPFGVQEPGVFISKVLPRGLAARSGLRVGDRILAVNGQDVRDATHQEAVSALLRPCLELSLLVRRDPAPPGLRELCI
Parameters: key: below the threshold = too weak to quantify, mostly under pKd 3.1 to 4

Row | pKd | Binder
3 | 4.24 | B1
4 | 3.66 | B2

The binders below were run against T1, APBA1_2, Q02410 (assay: holdup assay). Conditions: plain residues with an end cap or a label only (N-terminal biotin on a linker: ado-ado).
Parameters: key: below the threshold = too weak to quantify, mostly under pKd 3.1 to 4

Row | pKd | Binder
5 | 4.64 | B1
6 | 3.87 | B2

These binders were tested against PICK1, Q9NRD5 (assay: holdup assay). Conditions: plain residues with an end cap or a label only (N-terminal biotin on a linker: ado-ado).
PICK1, Q9NRD5, sequence (Q9NRD5 17-115): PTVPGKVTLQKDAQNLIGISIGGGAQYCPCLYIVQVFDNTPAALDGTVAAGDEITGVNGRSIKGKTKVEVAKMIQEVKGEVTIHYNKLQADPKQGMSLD
Parameters: key: below the threshold = too weak to quantify, mostly under pKd 3.1 to 4

Row | pKd | Binder
7 | 4.17 | B1
8 | below the threshold | B2

These binders were tested against T2, PARD3B_1, Q8TEW8 (assay: holdup assay). Conditions: plain residues with an end cap or a label only (N-terminal biotin on a linker: ado-ado).
Parameters: key: below the threshold = too weak to quantify, mostly under pKd 3.1 to 4

Row | pKd | Binder
9 | below the threshold | B1
10 | 4.86 | B2

These binders were tested against NHERF4_4, Q86UT5 (assay: holdup assay). Conditions: plain residues with an end cap or a label only (N-terminal biotin on a linker: ado-ado).
NHERF4_4, Q86UT5, sequence (Q86UT5 464-550): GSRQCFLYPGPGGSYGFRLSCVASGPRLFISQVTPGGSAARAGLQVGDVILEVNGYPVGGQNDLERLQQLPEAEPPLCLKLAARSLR
Parameters: key: below the threshold = too weak to quantify, mostly under pKd 3.1 to 4

Row | pKd | Binder
11 | 4.05 | B1
12 | 3.97 | B2

Each binder was assayed against SCRIB_1, Q14160 (assay: holdup assay). Conditions: plain residues with an end cap or a label only (N-terminal biotin on a linker: ado-ado).
SCRIB_1, Q14160, sequence (Q14160 718-814): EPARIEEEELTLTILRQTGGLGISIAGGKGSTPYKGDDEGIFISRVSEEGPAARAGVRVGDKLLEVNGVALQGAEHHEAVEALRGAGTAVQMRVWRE
Parameters: key: below the threshold = too weak to quantify, mostly under pKd 3.1 to 4

Row | pKd | Binder
13 | 4.53 | B1
14 | 3.65 | B2

Each binder was assayed against T3, SNTG1, Q9NSN8 (assay: holdup assay). Conditions: plain residues with an end cap or a label only (N-terminal biotin on a linker: ado-ado).
Parameters: key: below the threshold = too weak to quantify, mostly under pKd 3.1 to 4

Row | pKd | Binder
15 | 4 | B1
16 | below the threshold | B2

Each binder was assayed against Inadl_3, Q8NI35 (assay: holdup assay). Conditions: plain residues with an end cap or a label only (N-terminal biotin on a linker: ado-ado).
Inadl_3, Q8NI35, sequence (Q8NI35 359-469): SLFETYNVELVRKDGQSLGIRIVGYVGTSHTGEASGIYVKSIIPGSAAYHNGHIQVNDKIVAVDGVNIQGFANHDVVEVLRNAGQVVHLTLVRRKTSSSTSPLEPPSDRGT
Parameters: key: below the threshold = too weak to quantify, mostly under pKd 3.1 to 4

Row | pKd | Binder
17 | below the threshold | B1
18 | 4.52 | B2

The binders below were run against LIMK2, P53671 (assay: holdup assay). Conditions: plain residues with an end cap or a label only (N-terminal biotin on a linker: ado-ado).
LIMK2, P53671, sequence (P53671 143-248): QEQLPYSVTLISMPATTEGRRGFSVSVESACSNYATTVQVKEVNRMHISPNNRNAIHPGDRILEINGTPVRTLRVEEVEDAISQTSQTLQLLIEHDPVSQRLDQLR
Parameters: key: below the threshold = too weak to quantify, mostly under pKd 3.1 to 4

Row | pKd | Binder
19 | below the threshold | B1
20 | below the threshold | B2

Each binder was assayed against GRIP2_6, Q9C0E4 (assay: holdup assay). Conditions: plain residues with an end cap or a label only (N-terminal biotin on a linker: ado-ado).
GRIP2_6, Q9C0E4, sequence (Q9C0E4 648-740): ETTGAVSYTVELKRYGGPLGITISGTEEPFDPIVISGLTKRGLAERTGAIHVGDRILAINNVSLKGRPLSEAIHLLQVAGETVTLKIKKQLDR
Parameters: key: below the threshold = too weak to quantify, mostly under pKd 3.1 to 4

Row | pKd | Binder
21 | below the threshold | B1
22 | 4.15 | B2

Each binder was assayed against T4, CARD11, Q9BXL7 (assay: holdup assay). Conditions: plain residues with an end cap or a label only (N-terminal biotin on a linker: ado-ado).
Parameters: key: below the threshold = too weak to quantify, mostly under pKd 3.1 to 4

Row | pKd | Binder
23 | below the threshold | B1
24 | below the threshold | B2

What follows are binders tested against TJP1_3, Q07157 (assay: holdup assay). Conditions: plain residues with an end cap or a label only (N-terminal biotin on a linker: ado-ado).
TJP1_3, Q07157, sequence (Q07157 416-512): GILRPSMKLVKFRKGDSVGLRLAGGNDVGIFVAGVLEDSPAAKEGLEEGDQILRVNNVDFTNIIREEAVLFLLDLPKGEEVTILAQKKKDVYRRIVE
Parameters: key: below the threshold = too weak to quantify, mostly under pKd 3.1 to 4

Row | pKd | Binder
25 | below the threshold | B1
26 | below the threshold | B2

What follows are binders tested against DLG5_1, Q8TDM6 (assay: holdup assay). Conditions: plain residues with an end cap or a label only (N-terminal biotin on a linker: ado-ado).
DLG5_1, Q8TDM6, sequence (Q8TDM6 617-713): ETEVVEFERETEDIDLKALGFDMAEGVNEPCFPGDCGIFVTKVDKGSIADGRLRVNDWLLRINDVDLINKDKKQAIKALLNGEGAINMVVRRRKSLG
Parameters: key: below the threshold = too weak to quantify, mostly under pKd 3.1 to 4

Row | pKd | Binder
27 | below the threshold | B1
28 | 3.97 | B2

Each binder was assayed against IL16_4, Q14005 (assay: holdup assay). Conditions: plain residues with an end cap or a label only (N-terminal biotin on a linker: ado-ado).
IL16_4, Q14005, sequence (Q14005 1229-1329): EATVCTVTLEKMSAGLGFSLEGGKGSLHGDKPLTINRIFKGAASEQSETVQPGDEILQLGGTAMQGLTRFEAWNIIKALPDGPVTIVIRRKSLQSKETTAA
Parameters: key: below the threshold = too weak to quantify, mostly under pKd 3.1 to 4

Row | pKd | Binder
29 | below the threshold | B1
30 | 3.62 | B2

What follows are binders tested against LNX1_1, Q8TBB1 (assay: holdup assay). Conditions: plain residues with an end cap or a label only (N-terminal biotin on a linker: ado-ado).
LNX1_1, Q8TBB1, sequence (Q8TBB1 261-371): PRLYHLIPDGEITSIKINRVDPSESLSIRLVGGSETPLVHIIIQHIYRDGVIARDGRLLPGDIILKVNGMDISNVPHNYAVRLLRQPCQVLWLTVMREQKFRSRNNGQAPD
Parameters: key: below the threshold = too weak to quantify, mostly under pKd 3.1 to 4

Row | pKd | Binder
31 | 3.75 | B1
32 | 3.47 | B2

What follows are binders tested against T5, LRRC7, Q96NW7 (assay: holdup assay). Conditions: plain residues with an end cap or a label only (N-terminal biotin on a linker: ado-ado).
Parameters: key: below the threshold = too weak to quantify, mostly under pKd 3.1 to 4

Row | pKd | Binder
33 | below the threshold | B1
34 | below the threshold | B2

What follows are binders tested against LDB3, O75112 (assay: holdup assay). Conditions: plain residues with an end cap or a label only (N-terminal biotin on a linker: ado-ado).
LDB3, O75112, sequence (O75112 1-94): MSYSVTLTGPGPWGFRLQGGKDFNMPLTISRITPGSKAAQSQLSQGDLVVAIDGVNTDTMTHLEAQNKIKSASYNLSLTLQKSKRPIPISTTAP
Parameters: key: below the threshold = too weak to quantify, mostly under pKd 3.1 to 4

Row | pKd | Binder
35 | below the threshold | B1
36 | below the threshold | B2

What follows are binders tested against DLG1_3, Q12959 (assay: holdup assay). Conditions: plain residues with an end cap or a label only (N-terminal biotin on a linker: ado-ado).
DLG1_3, Q12959, sequence (Q12959 457-571): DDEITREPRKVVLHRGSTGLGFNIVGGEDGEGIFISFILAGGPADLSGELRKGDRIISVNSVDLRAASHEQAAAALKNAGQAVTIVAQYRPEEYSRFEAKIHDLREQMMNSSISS
Parameters: key: below the threshold = too weak to quantify, mostly under pKd 3.1 to 4

Row | pKd | Binder
37 | 4.14 | B1
38 | below the threshold | B2

What follows are binders tested against T6, NHERF3_3, Q5T2W1 (assay: holdup assay). Conditions: plain residues with an end cap or a label only (N-terminal biotin on a linker: ado-ado).
Parameters: key: below the threshold = too weak to quantify, mostly under pKd 3.1 to 4

Row | pKd | Binder
39 | below the threshold | B1
40 | 4.02 | B2

The binders below were run against PTPN3, P26045 (assay: holdup assay). Conditions: plain residues with an end cap or a label only (N-terminal biotin on a linker: ado-ado).
PTPN3, P26045, sequence (P26045 505-587): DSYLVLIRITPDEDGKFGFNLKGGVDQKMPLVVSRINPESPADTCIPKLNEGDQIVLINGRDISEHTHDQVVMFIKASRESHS
Parameters: key: below the threshold = too weak to quantify, mostly under pKd 3.1 to 4

Row | pKd | Binder
41 | 4.74 | B1
42 | 3.77 | B2

Each binder was assayed against T7, SNTG2, Q9NY99 (assay: holdup assay). Conditions: plain residues with an end cap or a label only (N-terminal biotin on a linker: ado-ado).
Parameters: key: below the threshold = too weak to quantify, mostly under pKd 3.1 to 4

Row | pKd | Binder
43 | 3.84 | B1
44 | below the threshold | B2

The binders below were run against IL16_1, Q14005 (assay: holdup assay). Conditions: plain residues with an end cap or a label only (N-terminal biotin on a linker: ado-ado).
IL16_1, Q14005, sequence (Q14005 210-306): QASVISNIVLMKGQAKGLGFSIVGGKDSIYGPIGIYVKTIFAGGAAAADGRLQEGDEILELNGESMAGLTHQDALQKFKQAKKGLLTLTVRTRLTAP
Parameters: key: below the threshold = too weak to quantify, mostly under pKd 3.1 to 4

Row | pKd | Binder
45 | below the threshold | B1
46 | 3.81 | B2

The binders below were run against T8, MPP6, Q9NZW5 (assay: holdup assay). Conditions: plain residues with an end cap or a label only (N-terminal biotin on a linker: ado-ado).
Parameters: key: below the threshold = too weak to quantify, mostly under pKd 3.1 to 4

Row | pKd | Binder
47 | below the threshold | B1
48 | 3.71 | B2

These binders were tested against MAGI2_3, Q86UL8 (assay: holdup assay). Conditions: plain residues with an end cap or a label only (N-terminal biotin on a linker: ado-ado).
MAGI2_3, Q86UL8, sequence (Q86UL8 600-682): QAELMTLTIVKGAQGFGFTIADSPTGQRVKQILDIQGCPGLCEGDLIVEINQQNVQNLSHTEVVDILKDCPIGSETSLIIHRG
Parameters: key: below the threshold = too weak to quantify, mostly under pKd 3.1 to 4

Row | pKd | Binder
49 | 3.98 | B1
50 | below the threshold | B2

What follows are binders tested against GRASP, Q7Z6J2 (assay: holdup assay). Conditions: plain residues with an end cap or a label only (N-terminal biotin on a linker: ado-ado).
GRASP, Q7Z6J2, sequence (Q7Z6J2 96-193): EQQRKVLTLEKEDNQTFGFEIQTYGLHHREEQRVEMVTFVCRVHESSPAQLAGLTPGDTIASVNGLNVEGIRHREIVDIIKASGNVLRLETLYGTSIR
Parameters: key: below the threshold = too weak to quantify, mostly under pKd 3.1 to 4

Row | pKd | Binder
51 | 4.74 | B1
52 | below the threshold | B2

The binders below were run against AHNAK1, Q09666 (assay: holdup assay). Conditions: plain residues with an end cap or a label only (N-terminal biotin on a linker: ado-ado).
AHNAK1, Q09666, sequence (Q09666 4-100): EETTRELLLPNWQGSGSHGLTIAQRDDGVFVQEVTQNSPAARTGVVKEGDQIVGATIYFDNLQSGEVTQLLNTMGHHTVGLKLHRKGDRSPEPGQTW
Parameters: key: below the threshold = too weak to quantify, mostly under pKd 3.1 to 4

Row | pKd | Binder
53 | below the threshold | B1
54 | below the threshold | B2

The binders below were run against T9, NHERF3_1, Q5T2W1 (assay: holdup assay). Conditions: plain residues with an end cap or a label only (N-terminal biotin on a linker: ado-ado).
Parameters: key: below the threshold = too weak to quantify, mostly under pKd 3.1 to 4

Row | pKd | Binder
55 | 4.36 | B1
56 | below the threshold | B2
